Data on 17 molecules can be found in US20140322233A1 (Takeda / Millennium, published 2014).

Changes are numbered by the printed parent chain.

B1: mAb Abx-393 (antibody, IgG1, V domains shown)
VH: QVQLQESGPGLVKPSETLSLTCTVSGGSIRHYYWSWIRQPPGKGLEWIGYIYYSGSTNYNLSLKSRVTISRDTSKNQVSLKLSSVTAADTAVYYCAAGMGFDYWGQGTLVTVSS
VL: DIQMTQSPSSLSASIGDRVTITCRASQAIRNDLGWYQLKPGKAPKRLIYSASSLQSGVPSRFSGSGSGTEFTLTISSLQPEDSATYYCLQHNSFPPTFGQGTKVEIK
B2: mAb Abx-198 (antibody, IgG1, V domains shown)
VH: EVQLLESGGGLVQPGGSLRLSCAASGFTFSSYAMSWVRQAPGKGLDWVSDISGSGGSTYYADSVKGRFTISRDNSKNTLYLQMHSLSAEDTAIYYCAKRRWQGYFDLWGRGTLVTVSS
VL: EIVLTQSPGTLSLSPGERATLSCRARQRVDSRYLAWYQQKPGQAPRLLIYGASSRATGIPDRFSGSGSGTDFTLTISRLEPEDFAVYYCQQYGSSPLTFGGGTKVEIK
B3: mAb 10D3 (antibody, V domains shown)
VH: QVQLQQWGAGLLKPSETLSLTCAVFGGSFSGYYWSWIRQPPGKGLEWIGEINHRGNTNDNPSLKSRVTISVDTSKNQFALKLSSVTAADTAVYYCARERGYTYGNFDHWGQGTLVTVSS
VL: EIVLTQSPGTLSLSPGERATLSCRASQSVSSRYLAWYQQKPGQAPRLLIYGASSRATGTPDRFSGSGSGTDFTLTISRLEPEDFAVYFCQQYERSFTFGPGTKVD
B4: mAb Abx-221 (antibody, V domains shown)
VH: EVQLLESGGGLVQPGGSLRLSCAASGFTFSRYAMNWVRQAPGKGLEWVSGISGSGGSTYYADSVKGRFTISRDNSKNTLYLQMNSLRAEDTAVYYCAKDRDFWSGPFDYWGQGTLVTVSS
VL: EIVMTPSSATLSVSPGERATLSCRASQSVSRSLAWYQQKPGQAPRLLIYGASTRATGIPARFSGSGSGTEFTLTISSLQSEDVAVYYCQQYNNWMCSFGQGTKLEIK
B5: mAb Abx-229 (antibody, V domains shown)
VH: B4 VH with S57R
VL: B4 VL with S32N, V83F, Q89H, N92S
B6: mAb Abx-020 (antibody, IgG1, V domains shown)
VH: QVQLVESGGGLVKPGGSLRLSCAASGFTFSDYYMSWIRQAPGKGLEWISYITSSGSTIYYSASVKGRFTISRDNAKNSLYLQMNSLRAEDTAVYYCARDFSGWFGVHFDYWGQGTLVTVSS
VL: DIVMTQTPLSLSVTPGQPASISCKSSQSLLHSDGKTYLYWYLQKPGQPPQLLIYEVSNRFSGVPNRFSGSGSGTDFTLKISRVEAEDVGVYYCMQSIQLTWTFGQGTKVEIK
B7: mAb 6H8 (antibody, IgG2, V domains shown)
VH: QVQLVESGGGVVQPGRSLRLSCAASGFTFSSYGMHWVRQAPGKGLEWVAAIWYDGSNKYYADSVKGRFTISRDNSKNTLYLQMNSLRAEDTAVYYCARGRSSSYFDYWGQGTLVTVSS
VL: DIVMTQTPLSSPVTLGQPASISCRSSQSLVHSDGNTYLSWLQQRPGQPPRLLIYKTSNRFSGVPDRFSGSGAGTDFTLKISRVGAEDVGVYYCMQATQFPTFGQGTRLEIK
B8: mAb 10C10 (antibody, IgG2, V domains shown)
VH: B7 VH
VL: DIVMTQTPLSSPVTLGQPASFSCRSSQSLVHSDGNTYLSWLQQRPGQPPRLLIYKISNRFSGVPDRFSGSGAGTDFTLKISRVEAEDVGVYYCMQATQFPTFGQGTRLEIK
B9: mAb 8C2 (antibody, IgG2, V domains shown)
VH: B7 VH with A23V, A49G, D62A, Y94F
VL: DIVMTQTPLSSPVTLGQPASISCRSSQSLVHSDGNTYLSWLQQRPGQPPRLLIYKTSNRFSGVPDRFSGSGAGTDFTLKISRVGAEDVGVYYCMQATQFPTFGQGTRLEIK
B10: mAb Abx-106 (antibody, IgG1, V domains shown)
VH: QVQLQESGPGLVKPSETLSLTCTVSGASISHYYWSWIRQPAGKGLEWIGRIYISGRTSYNPSLKSRVTVSVDTSKNQFSLKLSSVTAADTAVYYCARDRLTGYFDYWGQGTLVTVSS
VL: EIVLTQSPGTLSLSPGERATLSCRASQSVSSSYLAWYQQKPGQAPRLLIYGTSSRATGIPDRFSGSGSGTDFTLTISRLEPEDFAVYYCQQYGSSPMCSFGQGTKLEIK
B11: mAb Abx-338 (antibody, IgG1, V domains shown)
VH: B10 VH with A27G, S30R, H31S, S58T, Y59F, V69I, Y94F, L100Y, T101Y, F104L
VL: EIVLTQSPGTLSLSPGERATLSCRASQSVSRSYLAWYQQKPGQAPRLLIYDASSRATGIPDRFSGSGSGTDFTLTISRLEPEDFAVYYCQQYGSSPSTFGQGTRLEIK
B12: mAb Abx-012 (antibody, IgG1, V domains shown)
VH: B10 VH
VL: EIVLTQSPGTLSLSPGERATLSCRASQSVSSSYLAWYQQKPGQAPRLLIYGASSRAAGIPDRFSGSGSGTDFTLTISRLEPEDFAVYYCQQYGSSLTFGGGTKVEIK
notes: also called Abx-12
B13: 5F9-vc-MMAF (antibody, V domains shown)
VH: B3 VH
VL: EIVMTQSPATLSVSPGERATLSCRASQSVSRNLAWYQQKPGQAPRLLIYGASTRATGIPARFSGSGSGTEFTLTIGSLQSEDFAVYYCQQYKTWPRTFGQGTNVEIK
modifications: mc-vc-MMAF drug-linker on reduced interchain cysteines of the antibody; positions not given
notes: Antibody drug conjugate of 5F9; average loading about four
B14: 5F9-mc-MMAF (antibody, V domains shown)
VH: B3 VH
VL: B13 VL
modifications: mc-MMAF drug-linker on reduced interchain cysteines of the antibody; positions not given
notes: as for B13
B15: 5F9-vc-MMAE (antibody, V domains shown)
VH: B3 VH
VL: B13 VL
modifications: mc-vc-MMAE drug-linker on reduced interchain cysteines of the antibody; positions not given
notes: Antibody drug conjugate of 5F9
B16: mAb 3G1 (antibody, IgG1, V domains shown)
VH: QVQLKESGPGLVAPSQSLSITCTVSGFSLSRNAISWVRQPPGKGLEWLGVIWTGGGTNYNSALKSRLSIRKENSKSQVFLKMNSLQTEDTARYFCARSGYDGFDYWGQGTLVTVSA
VL: QIVLTQSPAIMSASPGEKVTMTCSASSSVNYMHWYQQKSGTSPKRWIYDTSKLASGVPARFSGSGSGTSYSLTITSMEAEDAATYYCQQWSGNPYTFGGGTKLEIK
B17: mAb 8F1 (antibody, IgG1, V domains shown)
VH: QVQLQQPGAELVKPGASVQMSCKASGYIFTGYWMYWVKQRPGQGLEWIGRIHPSDSNTNYNQKFKGKATLTVDKSSSTAYMQLSSLTSEDSAVYYCTHALAYWGQGTLVTVS
VL: DVVLTQTPLTLSITIGQPASISCKSSQSLLYSNGKTYLSWLLQRPGQSPKRLIYLVSQLDSGVPDRFTGSGSGTDFTLKISRVEAEDLGVYYCVQGTHLFTFGSGTKLEIK

T1 sequence (P25092 24-1073): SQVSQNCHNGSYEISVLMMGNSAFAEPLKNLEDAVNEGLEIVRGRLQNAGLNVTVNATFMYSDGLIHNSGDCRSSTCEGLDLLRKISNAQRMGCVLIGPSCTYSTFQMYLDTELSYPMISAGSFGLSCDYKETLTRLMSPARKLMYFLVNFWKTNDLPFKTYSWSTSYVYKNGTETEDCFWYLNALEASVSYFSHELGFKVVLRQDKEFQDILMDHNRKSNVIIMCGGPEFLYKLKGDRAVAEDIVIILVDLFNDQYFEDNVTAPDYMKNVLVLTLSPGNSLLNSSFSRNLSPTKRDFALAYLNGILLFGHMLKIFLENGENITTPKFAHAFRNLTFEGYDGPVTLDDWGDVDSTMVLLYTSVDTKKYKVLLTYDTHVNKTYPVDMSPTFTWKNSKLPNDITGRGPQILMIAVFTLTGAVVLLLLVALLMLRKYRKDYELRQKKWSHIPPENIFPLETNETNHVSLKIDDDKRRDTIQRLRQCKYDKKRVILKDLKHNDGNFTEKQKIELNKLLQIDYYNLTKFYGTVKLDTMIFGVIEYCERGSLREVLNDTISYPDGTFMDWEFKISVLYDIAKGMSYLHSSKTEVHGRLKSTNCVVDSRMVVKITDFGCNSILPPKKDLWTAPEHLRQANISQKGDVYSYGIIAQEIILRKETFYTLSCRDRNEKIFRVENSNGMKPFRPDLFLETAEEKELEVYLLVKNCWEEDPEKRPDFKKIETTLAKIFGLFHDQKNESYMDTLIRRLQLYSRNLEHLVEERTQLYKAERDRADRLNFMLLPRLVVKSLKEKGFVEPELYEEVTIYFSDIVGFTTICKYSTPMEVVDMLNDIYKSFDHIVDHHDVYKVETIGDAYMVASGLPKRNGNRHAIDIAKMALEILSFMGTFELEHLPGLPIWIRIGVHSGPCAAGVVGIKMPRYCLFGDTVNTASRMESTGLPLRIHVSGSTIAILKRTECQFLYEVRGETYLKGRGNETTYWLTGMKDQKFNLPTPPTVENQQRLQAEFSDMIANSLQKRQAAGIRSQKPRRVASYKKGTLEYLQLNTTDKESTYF

The first assay has as its target T1, human GCC, full length with myc tag (293-GCC#2 cells) (human, UniProt P25092 24-1073). Kind of assay: cell-based or functional assay.
With B1, the “LD50, indirect cytotoxicity with DM1-conjugated mouse anti-human IgG, 293-GCC#2 cells, WST after 4 days” value (“LD50, indirect cytotoxicity” for short) is greater than 5400 pM.
Same read-out and setting: next, B2: greater than 5400 pM.
As for B3, the “LD50, indirect cytotoxicity” value was 1600 pM.
Same read-out and setting: with B4 the figure was 207 pM; with B5, 78 pM.
Same read-out and setting: next, B6: 569 pM; B7: greater than 4820 pM.
On to B8, for which the “LD50, indirect cytotoxicity” value is 2440 pM.
Turning to B9, the “LD50, indirect cytotoxicity” value stood at 2040 pM.
Take B10: the “LD50, indirect cytotoxicity” value stood at 166 pM.
Still for that read-out and setting: with B11 the figure was 267 pM; with B12, 279 pM.

In a further assay the target is T2, human guanylyl cyclase C (GCC), full length (human, UniProt P25092 24-1073). Briefly: cell-based or functional assay.
T2 sequence (P25092 24-1073 limits assumed): as the sequence (P25092 24-1073) above
As for B13, the “LD50, direct cytotoxicity, CT 26 GCC #2.5 cells” value (from here on “LD50 … CT 26 GCC #2.5 cells”) is greater than 10 nM; the “LD50, direct cytotoxicity, CT 26 GCC #32 cells” value (“LD50 … CT 26 GCC #32 cells” below) turned out to be 0.004 nM; the “LD50, direct cytotoxicity, HT 29 GCC #2 cells” value (from here on “LD50 … HT 29 GCC #2 cells”) was determined as 0.127 nM; the “LD50, direct cytotoxicity, HT 29 GCC #5 cells” value (from here on “LD50 … HT 29 GCC #5 cells”) was determined as 563 nM. Further, the “LD50, direct cytotoxicity, HT 29 GCC #18 cells” value (from here on “LD50 … HT 29 GCC #18 cells”) was greater than 10 µM.
For B14, the “LD50 … CT 26 GCC #2.5 cells” value was greater than 10 nM; the “LD50 … CT 26 GCC #32 cells” value was 0.064 nM; the “LD50 … HT 29 GCC #2 cells” value was 3.1 nM; the “LD50 … HT 29 GCC #5 cells” value was greater than 10000 nM. For the same molecule, the “LD50 … HT 29 GCC #18 cells” value is greater than 10 µM and the “LD50, direct cytotoxicity, HT29 GCC#5 cells” value is greater than 10 nM.
Take B15: the “LD50 … CT 26 GCC #2.5 cells” value was greater than 500 nM; the “LD50 … CT 26 GCC #32 cells” value worked out at 267 nM; the “LD50 … HT 29 GCC #2 cells” value is 24.1 nM; the “LD50 … HT 29 GCC #5 cells” value turned out to be 654 nM. Also, the “LD50 … HT 29 GCC #18 cells” value was 0.555 µM and the “LD50, direct cytotoxicity, HT29 GCC#5 cells” value was found to be 0.59 nM.

In a further assay the target is T3, TOK107-hIg (human).
T3 construct: Expressed in HEK293 cells; Fc mutated at the CH1 cysteine and at lysine 235 and glycine 237 to alanine; also called hGCC-ECD/hIgG1 Fc; TOK107-hIgG
T3 sequence (chain, as listed by the source limits assumed): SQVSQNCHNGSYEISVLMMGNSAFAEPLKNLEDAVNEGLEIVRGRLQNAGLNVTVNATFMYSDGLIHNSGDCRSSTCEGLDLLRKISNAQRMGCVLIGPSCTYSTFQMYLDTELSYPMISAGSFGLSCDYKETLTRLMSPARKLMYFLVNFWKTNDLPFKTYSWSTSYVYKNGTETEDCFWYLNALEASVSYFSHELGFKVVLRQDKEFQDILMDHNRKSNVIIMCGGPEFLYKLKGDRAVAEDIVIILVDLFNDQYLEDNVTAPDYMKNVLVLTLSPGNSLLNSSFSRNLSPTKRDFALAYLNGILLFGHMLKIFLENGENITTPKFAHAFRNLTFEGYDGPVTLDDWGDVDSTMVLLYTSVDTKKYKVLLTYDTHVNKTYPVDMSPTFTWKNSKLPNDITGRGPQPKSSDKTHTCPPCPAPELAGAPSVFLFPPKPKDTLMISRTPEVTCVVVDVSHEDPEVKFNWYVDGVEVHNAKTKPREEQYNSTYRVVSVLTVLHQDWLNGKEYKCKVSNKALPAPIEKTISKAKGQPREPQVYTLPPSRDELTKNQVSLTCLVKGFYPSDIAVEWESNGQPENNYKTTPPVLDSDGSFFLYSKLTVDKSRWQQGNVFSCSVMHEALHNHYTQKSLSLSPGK
Kind of assay: ELISA against TOK107-hIg.
B2 came in with an EC50 of 47.7 nM. That is a double-digit nanomolar value.
Still for that read-out and setting: next, B4: 6.55 nM; B5: 29.5 nM; B6: 4.58 nM.
The same measure, in the same setting: next, B11: 0.0049 nM; B12: 0.555 nM; B16: 22.8 nM.

Another assay concerns the target T3, TOK107-hIg. Briefly: ELISA on coated TOK107-hIg.
For the molecule B1, the binding result is “binds”.
As for B3, the binding result was “binds”.
B7: the binding result was “binds”.
Same read-out and setting: next, B9: “binds”.
Regarding B17, the binding result is listed as “binds”.
The same measure, in the same setting: with B10 the entry was “binds”.

The next assay addresses T2, human guanylyl cyclase C (GCC), full …. Kind of assay: FACS, HT-29#2 cells (full length GCC transfected).
B17: the binding result was “binds”.

A further assay shares this target. Briefly: FACS with GCC-expressing cells (cell line not given).
Molecule B11 returned an EC50 of 90 nM.

The target in the next assay is T1, human GCC, full length with myc tag …. Briefly: indirect immunofluorescence flow cytometry, 293 GCC #2 cells.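 Further: cells exposed to the test antibodies for 1 h on ice before flow cytometric readout.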
As to B13, the “MFI at 0.001 µg/ml” value was determined as 440, the “MFI at 0.004 µg/ml” value turned out to be 707, the “MFI at 0.016 µg/ml” value was 1500 and the “MFI at 0.063 µg/ml” value was determined as 4830. Further, the “MFI at 0.25 µg/ml” value was 7560 and the “MFI at 1 µg/ml” value came out at 7780.
Regarding B14, the “MFI at 0.001 µg/ml” value was determined as 483, the “MFI at 0.004 µg/ml” value stood at 776, the “MFI at 0.016 µg/ml” value stood at 2110 and the “MFI at 0.063 µg/ml” value was determined as 5350. In addition, the “MFI at 0.25 µg/ml” value is 7400 and the “MFI at 1 µg/ml” value is 7580.
Consider B15, for which the “MFI at 0.001 µg/ml” value came to 445, the “MFI at 0.004 µg/ml” value stood at 696, the “MFI at 0.016 µg/ml” value amounted to 1790 and the “MFI at 0.063 µg/ml” value amounted to 4850. The “MFI at 0.25 µg/ml” value came to 7300 and the “MFI at 1 µg/ml” value was 7420.

The target of a further assay is T2, human guanylyl cyclase C (GCC), full …. Briefly: FACS with GCC-expressing cells (cell line not given); FACS EC50 on GCC-expressing cells.
B16 came in with a concentration for a half-maximal effect (EC50) of 0.58 nM.
